# Results from PMC5419085.
# Biological target: full-length human LRP1 (low-density lipoprotein receptor-related protein 1) (human)
# Experiment: ELISA; full-length human LRP1 (5 nM) coated on microtiter plates; biotinylated ADAMTS-5-2 (6 nM) with or without antibodies or RAP (each 100 nM); detected by AP-conjugated streptavidin; TNC buffer, 2 h, room temperature; bound amount as % of that without antibodies or RAP
substance,measurement,value
receptor-associated protein (RAP) (from UniProt P30533 35-357) (natural protein),percent inhibition of ADAMTS-5 binding to LRP1 at 100 nM,75%
